{"source": "patent US20260209311A1", "about": "“MODIFIED G PROTEIN COUPLED RECEPTOR AND USE THEREOF” (ALPHELIX BIOTECH CO., LTD., priority 2023, published 2026)", "biological_target": "T1, modified GPR75 (GPR75-GFP10-11 modified protein complex) (Homo sapiens, UniProt O95800, A308G/DEL234-307/I309H/INS313[…]/N310Y)", "T1 construct": "obesity-related receptor GPR75 (1-395); signal peptide (N); made in house; The clamp protein is made in E. coli Rosetta 2 (DE3), as described for GFP-clamp", "assay": "SPR determination of affinity of purified modified GPR75 to CCL5 ligand", "assay_type": "binding", "conditions": "Biacore 8K, Series S Sensor SA chip, pH 7.4; values only in FIG. 79 C", "experimental": "The purification and identification method of the modified GPR75 fusion protein refers to Example 4. The difference is that during the purification, GFP-clamp-avi-biotin was added rather than GFP-clamp. The molecular sieve chromatography result graph of the modified fusion protein is seen in A of FIG. 79, and the SDS gel electrophoresis result graph of the modified fusion protein is seen in B of FIG. 79.\nThe purified GPR75 was used for determination of affinity to CCL5 ligand via surface plasmon resonance (SPR). The used instrument was Biacore 8K, and the chip was Series S Sensor SA Chip:SA-2429. Both a protein immobilization buffer and a running buffer contained 20 mM HEPES, 150 mM NaCl, 0.005% LMNG and 0.0005% CHS, pH 7.4. The affinity determination results are seen in C of FIG. 79."}
{"substance": "CCL5: CCL5 ligand of the obesity-related receptor GPR75", "values": [{"measurement": "affinity (SPR)", "result": "close to reported results"}]}
